Data on two molecules can be found in article PMC12296736.

The target of series [1] is T1, His-nOsBZR4 (His-OsBZR4) (Oryza sativa (rice), UniProt Q6EUF1 1-108).
T1 sequence: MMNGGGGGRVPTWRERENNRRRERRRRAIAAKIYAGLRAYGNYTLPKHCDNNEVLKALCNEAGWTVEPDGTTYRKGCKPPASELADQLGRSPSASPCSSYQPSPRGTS
Description: EMSA. A general note: A gel shift assay detects complexes by their altered migration in electrophoresis.

For series [2], the target named is T1, His-nOsBZR4 (His-OsBZR4). The experiment in a line: EMSA. This is another data set of the same source.

Like-named read-outs stand apart in the source and are kept apart here.

B1: YUC4-EMSA (dsDNA)
DNA 1: CGACCGAGCATATGCTCCGTGTTGGTGTATATATACTCGT
DNA 2: ACGAGTATATATACACCAACACGGAGCATATGCTCGGTCG
As to B1, the binding result with His-nOsBZR4 (His-OsBZR4) [1] is listed as “binds”.

B2: YUC11-EMSA (dsDNA)
DNA 1: TTCCGTATAAATAGCATGTGCTCTCCGA
DNA 2: TCGGAGAGCACATGCTATTTATACGGAA
For B2, the binding result with His-nOsBZR4 (His-OsBZR4) [2] is “binds”.
